In the Human Domainome abundance scans (Beltran et al. 2025):
± gives the uncertainty stated by the source.

B1: Far upstream element-binding protein 1, residues 184 to 257; numbered along this chain, Q96AE4 (parent)
chain: GNAVQEIMIPASKAGLVIGKGGETIKQLQERAGVKMVMIQDGPQNTGADKPLRITGDPYKVQQAKEMVLELIRD

Variants of: B1
Experiment: abundance fitness (aPCA) (normalised: wild type 0, dead -1); higher = more abundant; growth selection in yeast, the domain comes from the species named
Conditions: Homo sapiens

GNAVQEIMIPASKAGLVIGKGGETIKQLQERAGVKMVMIRDGPQNTGADKPLRITGDPYKVQQAKEMVLELIRD [Q40R] and GNAVQEIMIPASKAGLVIGKGGETIKQLQERAGVKMVMISDGPQNTGADKPLRITGDPYKVQQAKEMVLELIRD [Q40S] are within error of each other in abundance fitness: -0.053 ± 0.028 for the first, -0.042 ± 0.032 for the second.

GNAVQEIMIPASKAGLVIGKGGETIKQLQERAGVKMVMITDGPQNTGADKPLRITGDPYKVQQAKEMVLELIRD [Q40T] and GNAVQEIMIPASKAGLVIGKGGETIKQLQERAGVKMVMIVDGPQNTGADKPLRITGDPYKVQQAKEMVLELIRD [Q40V] are within error of each other in abundance fitness: -0.059 ± 0.036 for the first, -0.052 ± 0.032 for the second.

GNAVQEIMIPASKAGLVIGKGGETIKQLQERAGVKMVMIWDGPQNTGADKPLRITGDPYKVQQAKEMVLELIRD [Q40W] and GNAVQEIMIPASKAGLVIGKGGETIKQLQERAGVKMVMIYDGPQNTGADKPLRITGDPYKVQQAKEMVLELIRD [Q40Y] are within error of each other in abundance fitness: -0.086 ± 0.039 for the first, -0.049 ± 0.061 for the second.

GNAVQEIMIPASKAGLVIGKGGETIKQLQERAGVKMVMIQAGPQNTGADKPLRITGDPYKVQQAKEMVLELIRD [D41A] and GNAVQEIMIPASKAGLVIGKGGETIKQLQERAGVKMVMIQCGPQNTGADKPLRITGDPYKVQQAKEMVLELIRD [D41C] are within error of each other in abundance fitness: -0.077 ± 0.031 for the first, -0.034 ± 0.047 for the second.

Compared with GNAVQEIMIPASKAGLVIGKGGETIKQLQERAGVKMVMIQEGPQNTGADKPLRITGDPYKVQQAKEMVLELIRD [D41E], GNAVQEIMIPASKAGLVIGKGGETIKQLQERAGVKMVMIQFGPQNTGADKPLRITGDPYKVQQAKEMVLELIRD [D41F] is lower in abundance fitness: 0.009 ± 0.035 for the first, -0.189 ± 0.055 for the second.

GNAVQEIMIPASKAGLVIGKGGETIKQLQERAGVKMVMIQGGPQNTGADKPLRITGDPYKVQQAKEMVLELIRD [D41G] and GNAVQEIMIPASKAGLVIGKGGETIKQLQERAGVKMVMIQHGPQNTGADKPLRITGDPYKVQQAKEMVLELIRD [D41H] are within error of each other in abundance fitness: -0.009 ± 0.026 for the first, -0.048 ± 0.05 for the second.

Compared with GNAVQEIMIPASKAGLVIGKGGETIKQLQERAGVKMVMIQKGPQNTGADKPLRITGDPYKVQQAKEMVLELIRD [D41K], GNAVQEIMIPASKAGLVIGKGGETIKQLQERAGVKMVMIQLGPQNTGADKPLRITGDPYKVQQAKEMVLELIRD [D41L] is lower in abundance fitness: -0.007 ± 0.04 for the first, -0.095 ± 0.031 for the second.

Going from GNAVQEIMIPASKAGLVIGKGGETIKQLQERAGVKMVMIQMGPQNTGADKPLRITGDPYKVQQAKEMVLELIRD [D41M] to GNAVQEIMIPASKAGLVIGKGGETIKQLQERAGVKMVMIQNGPQNTGADKPLRITGDPYKVQQAKEMVLELIRD [D41N], the abundance fitness rises from -0.089 ± 0.045 to 0.047 ± 0.049.

GNAVQEIMIPASKAGLVIGKGGETIKQLQERAGVKMVMIQQGPQNTGADKPLRITGDPYKVQQAKEMVLELIRD [D41Q] and GNAVQEIMIPASKAGLVIGKGGETIKQLQERAGVKMVMIQRGPQNTGADKPLRITGDPYKVQQAKEMVLELIRD [D41R] are within error of each other in abundance fitness: -0.006 ± 0.041 for the first, -0.052 ± 0.028 for the second.

GNAVQEIMIPASKAGLVIGKGGETIKQLQERAGVKMVMIQTGPQNTGADKPLRITGDPYKVQQAKEMVLELIRD [D41T] and GNAVQEIMIPASKAGLVIGKGGETIKQLQERAGVKMVMIQVGPQNTGADKPLRITGDPYKVQQAKEMVLELIRD [D41V] are within error of each other in abundance fitness: -0.052 ± 0.036 for the first, -0.023 ± 0.031 for the second.

Compared with GNAVQEIMIPASKAGLVIGKGGETIKQLQERAGVKMVMIQYGPQNTGADKPLRITGDPYKVQQAKEMVLELIRD [D41Y], GNAVQEIMIPASKAGLVIGKGGETIKQLQERAGVKMVMIQDAPQNTGADKPLRITGDPYKVQQAKEMVLELIRD [G42A] is higher in abundance fitness: -0.139 ± 0.054 for the first, -0.028 ± 0.032 for the second.

GNAVQEIMIPASKAGLVIGKGGETIKQLQERAGVKMVMIQDCPQNTGADKPLRITGDPYKVQQAKEMVLELIRD [G42C] and GNAVQEIMIPASKAGLVIGKGGETIKQLQERAGVKMVMIQDDPQNTGADKPLRITGDPYKVQQAKEMVLELIRD [G42D] are within error of each other in abundance fitness: -0.037 ± 0.04 for the first, -0.069 ± 0.046 for the second.

GNAVQEIMIPASKAGLVIGKGGETIKQLQERAGVKMVMIQDEPQNTGADKPLRITGDPYKVQQAKEMVLELIRD [G42E] and GNAVQEIMIPASKAGLVIGKGGETIKQLQERAGVKMVMIQDFPQNTGADKPLRITGDPYKVQQAKEMVLELIRD [G42F] are within error of each other in abundance fitness: 0.007 ± 0.033 for the first, -0.078 ± 0.056 for the second.

GNAVQEIMIPASKAGLVIGKGGETIKQLQERAGVKMVMIQDHPQNTGADKPLRITGDPYKVQQAKEMVLELIRD [G42H] and GNAVQEIMIPASKAGLVIGKGGETIKQLQERAGVKMVMIQDIPQNTGADKPLRITGDPYKVQQAKEMVLELIRD [G42I] are within error of each other in abundance fitness: -0.082 ± 0.048 for the first, -0.052 ± 0.054 for the second.

Going from GNAVQEIMIPASKAGLVIGKGGETIKQLQERAGVKMVMIQDKPQNTGADKPLRITGDPYKVQQAKEMVLELIRD [G42K] to GNAVQEIMIPASKAGLVIGKGGETIKQLQERAGVKMVMIQDLPQNTGADKPLRITGDPYKVQQAKEMVLELIRD [G42L], the abundance fitness falls from 0.049 ± 0.04 to -0.158 ± 0.032.

GNAVQEIMIPASKAGLVIGKGGETIKQLQERAGVKMVMIQDMPQNTGADKPLRITGDPYKVQQAKEMVLELIRD [G42M] and GNAVQEIMIPASKAGLVIGKGGETIKQLQERAGVKMVMIQDNPQNTGADKPLRITGDPYKVQQAKEMVLELIRD [G42N] are within error of each other in abundance fitness: -0.084 ± 0.04 for the first, -0.059 ± 0.054 for the second.

GNAVQEIMIPASKAGLVIGKGGETIKQLQERAGVKMVMIQDPPQNTGADKPLRITGDPYKVQQAKEMVLELIRD [G42P] and GNAVQEIMIPASKAGLVIGKGGETIKQLQERAGVKMVMIQDQPQNTGADKPLRITGDPYKVQQAKEMVLELIRD [G42Q] are within error of each other in abundance fitness: -0.059 ± 0.035 for the first, -0.029 ± 0.042 for the second.

GNAVQEIMIPASKAGLVIGKGGETIKQLQERAGVKMVMIQDRPQNTGADKPLRITGDPYKVQQAKEMVLELIRD [G42R] and GNAVQEIMIPASKAGLVIGKGGETIKQLQERAGVKMVMIQDSPQNTGADKPLRITGDPYKVQQAKEMVLELIRD [G42S] are within error of each other in abundance fitness: -0.022 ± 0.026 for the first, 0.009 ± 0.031 for the second.

Work on GNAVQEIMIPASKAGLVIGKGGETIKQLQERAGVKMVMIQDWPQNTGADKPLRITGDPYKVQQAKEMVLELIRD [G42W] yielded an abundance fitness of -0.33 ± 0.037.
